Test results taken from publication PMC8985508.

Target: trastuzumab
Assay: fluorescence polarisation

IC50	Kd	Substance
91 nM		NH2-PEG20-Fc-III (peptide)
58 nM		Fc-III peptide (wild-type Fc-III)
	14 nM	Fc-III labeled with fluorescein (Fc-III-FAM) (peptide)
